Results reported in PMC8632296 (mAbs, 2021).

Assays:
[1] = molecular target: recombinant human carbonic anhydrase IX extracellular domain, dimer (Homo sapiens, UniProt Q16790); experiment: SPR
[2] = molecular target: human carbonic anhydrase IX on cells and in tumour tissue (Homo sapiens, UniProt Q16790); experiment: plate-based cell binding assay
[3] = molecular target: recombinant human carbonic anhydrase IX extracellular domain, monomer (human, UniProt Q16790); experiment: SPR

B1: c12H8, recombinant chimeric anti-hCAIX antibody (human IgG1) (antibody, V domains shown)
VH: QIQLVQSGPELKKPGETVKISCKASGYTFTNYGMNWVQQAPGKGLKWMGWINTYTGEPTYADDFKGRFAFSLETSASTAYLQINNLKNEDMATYFCARGGIATPTSYWGQGTTLTVSS
VL: not shown
Kd [1]: 0.032 nM
koff [1]: 0.000115 s⁻¹
kon [1]: 3.58e+06 M⁻¹ s⁻¹
EC50 [2]: 0.221 nM
Kd [3]: 34.5 nM
koff [3]: 0.0524 s⁻¹
kon [3]: 1.52e+06 M⁻¹ s⁻¹

B2: m4A2, recombinant murine anti-hCAIX antibody (mouse IgG2a) (antibody, V domains shown)
VH: EVKLEESGGGLVQPGRSMKLSCVASGFTFSYYWMDWVRQSPEKGLEWVAEIRLKSDNYATHYAESVKGRFTISRDDSKSSVYLQMNNLRAEDTGIYYCTRAPHYYGYFDYWGQGTTLTVSS
VL: QIVLTQSPAVMSAFPGEKVTMTCSASSSVGYMHWYQQKAGSSPRLLIYDTSNLSSGVPARCSGSGSGTSYSLTISRMEAEDAATYYCQQWRSYPPTFGGGTKLEIK
Kd [1]: 0.189 nM
koff [1]: 7.68e-05 s⁻¹
kon [1]: 406000 M⁻¹ s⁻¹
EC50 [2]: 1.16 nM
Kd [3]: 0.826 nM
koff [3]: 0.00019 s⁻¹
kon [3]: 229000 M⁻¹ s⁻¹

B3: m9B6, recombinant murine anti-hCAIX antibody (mouse IgG2a) (antibody, V domains shown)
VH: QVQLQQPGAELVKPGASVKLSCKASGYIFTTKWINWVKQRPGQGLEWIGNIYPGSSNTYYNEKFKNKATLTVDKSSNTAHLQLSSLTSEDSAVYYCARGIANWGQGTPVTVSA
VL: DIVLTQSPSSLAVSLGQRATISCKASQSVDYDGNSYMNWFQQKPGQPPKLLIYEASSLESGIPARISGSGSGTDFTLNIHPVEEEDAATYYCQQSYEGPYTFGGGTKLEIK
EC50 [2]: 21.8 nM
